# Experimental data taken from the NTF2 design screens of Basanta et al. (2020).
# Assay: protease stability score; higher = more stable; yeast display proteolysis, trypsin and chymotrypsin;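 also: log10 excess protease needed over predicted unfolded state with 0 meaning unfolded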
row,Sequence,protease stability score
1,EEQVEELMHRIMTAIKTNNPDDLKRNIDPNAKIRIGDTVIHGMEEYVHQFEEEVKQLRIEIIDVQQDIKGDKVVVKIRFRRQHNGRPDETVTVFTAKMDNGKVKSLDFQEDG,1.22
2,EEQVRELLRKALEAKQEGDEKKLTKLFDPNAKVDVGDKTFHGMEDIARTIVTELKQIRVRLEIKHYSMRGDHLRVDAEVEEEHNGEPQTRRVIIYMHVQGDKITKQKIEDRQ,1.08
3,EERANDAARRFLEAIDRNNPDEAVKNFDPNARFRYGDKTVTGRTEVQELLEHLLKQMRITIQSVRVDARGDKVTVHLTVVVDVNGQPERHEMTVIANIHNGRIKEMEVRVDPDEQRERKR,0.575
4,EERDEAENAIRRFLEAVEEGDEDNLREQADPNAKFDVGDKTVHGMKSYARQQIEERERIDHVDYRISSVRLEGNRADVKVKFKARVDGRTKTATATINMQRHNGRMKIKEMKIN,0.018
5,EERDMEKMDTLVRDNDWKKMKNNVDPNAQVRIGEHEYTGKQQASTAFDILQKQVDHVDIHSFKNHGDQVEVHAILRYNGQNFQVNFRFRVHNGRFKKFSVEFTSEQQNKIMEEWLG,-0.039
6,EEREVEEMQKILQHGDPKEFEDNMDPNADVEIGDQQYRGRETIAQVLQKFRDQIDHRHIEEVHIHGDHAVIDVVATVNGQDLKYIIVVKVENGKLKSARLQATDPRVKHRMQEVYE,0.32
7,EERLQELAERWWKARRTGDPHKIRDLLDKDVRVEYGNKSIHGRENIAHEIVRQLKHLRLDEKVERIDRSNGHVRATLSVTVNINGQPYTYRFELRIRAHNGKVKKIELRMPEEVVRRLDT,1.73
8,EERQQELAKTFMEAVQSNDTTQLKRMFDKHAKVTVGDKTVSGREDASKWLSKLHKESRVQLRDVKVEVSGNKIDIKVRFEVQHNGKPREVTREMEMTFHNGKIKDLRATRTE,0.394
9,EERVNSVAEQFLDAVHTGDPNRVREQMDKDARMHVGDTTLHGRENMANHWKTLLDEMRITFHDYRIRVTGEEVEIRADVQYNHNGRPKRRVLTYTVEADNGKIHNWKVQEDS,0.472
10,EERVQKMLEDAMRTNDEVELIKSAPPNAKVVVGDKKIKGHEEAHRWAVRFKEQVDHTEIKHLDINGDKVSLDFSIVINGKKIRVVVKVTATNGKVREVHVQATSEDDQEQLKRDIK,0.652
11,EESAIERLKEAMKAFDHGDEDEWRQQFDKNARVQIGDKSVRGRDNMAKQIKKEKEKMRVEVKLESVHVHNGHVTADADYKEQKNGRPTSSRFQLHATFKGDKFKNMVWHKDS,-0.422
12,EESLEHIVRTMLEQIRRGDPRDLKEMFPENARIEYGDRSIHGREEYAKTMEHKRRQARYHFQVKSIRNNGNKVELVMEVEDNHNGNPSTRRVKLTIVFHNGRIQNVEQTNKP,1.03
13,EESLIRLATLFMRAMETGDPKQANDLVDPNARFKIGDSVINGRERFNEWLKDLKEEMSVHYRVEHMHAEGDRVEVDFVVVYNVDGRPQRMRVKLEADLSNGRMRNVTLRFPSEEEKKIKK,0.525
14,EESVIKRIHQLMESNDWDQLVRQMDEDAKVEIGNFRVEGREEAEDWARKVKKQVDHLEVEDIQIRGNKVEVTMNVQVNGKTVRFDLVMEVRNGRVTSMSARFRSEDDVKIMEEMLK,1.15
15,EHELERQASKFAQLLRTNDFEKLLEMFDENARIEVGDKFVQGRDRIKKKLERDKTEMNRRYEDIKFTANGNTLNIKVIFTENHNGKPKRTVQLILITFRNGRIKRVEVRDDG,-0.065
16,EHENVRLARSLIDALQQNNPQQAQENADKDVQYEVGEKRIHGREQYSDTMRKNKEQMEFRVHSVDMDEHNGRVTVNLTFIESTNGDPKQDRANLVIEFHNGRIQHVRMSKDG,-0.268
17,EHEQSKLMEHLLRIVETGDDDEFRKNADPNVKFVYGDKEYDGREEAAKALREIKTELRFQLNDVEIRVENGVIEINYDFTANHNGRPQRRTQRATAEYDNGKLKSWSVRDDG,-0.172
18,EKEAKTLAHHVMEALEKNDPDQMDEQLDENARVQVGDREVHGREEVNKQIKRLKKHAHFEIESVTLDVQGDKVDAQYTMRADVNGKPWRDHVTVEIHVRNGRIKELRFRMDPQRLRDFKK,0.72
19,EKEDLQQIARDMAKAVVSGDKEQMRRLADENARAQIGDKTLHGREKLSELIKRIRDRVDHLRLVDVRQDGDQIQVYVDLVVNGRKRRFTIEAEAHNGHIHSVTFDPRAKEFLDS,1.79
20,EKEEVKKAVEAFNENDEDELRDLVDENVKVVIGEKDYTGRETYWQFLRRMHEQIDHMHVKSVSVSNGVLRMDVEVVFNGRNVRFTIEVQAHDGQIKRVHYQARSEEQHKEFLKMLK,1.58
21,EKEIVNNFKDWVRALTTGDEDRLRNYADPNAQFVVGEKRFHGMDDYVEDMRRRRTEIRVEIRVHHMNSTGEKIEIHAEQTHEHNGKPETHEFKMKAEVHNGRHKSVTQHDDG,0.201
22,EKENVQSWLEAWNALRQGDEKRVEQLVDPNARMQVGDKKVEGMTRHVHKEVRKMKEIRVELDLKTVDTQGDHAVVKFRESRNHNGQPREQDVVVRMRAHNGRVQEVNVHEVS,0.028
23,EKEQKERLEEAQHARESGDTERLKDLFDENVQVEVGDKRVNGMEKFVKDEVKKQRDLRISVTYTEMRNDPNHVDITVEVVEDKNGEPQRRVLEINIEYENGRARMMRVRRVQ,1.1
24,EKEVMDTLVKIVNEGNFEDLAKMADKDVQVRIGNKNLHGKEQLQKFMERFTRQADHIRVHRYQFSNGRFQFDFVIVVNGKRFRVTMHVEVSNGRIKKLVINVTDEDAEKVLREAYG,1.38
25,EKEVVELAERFIDALQTNNPDQAEENVDENVKFQYGDKSIKGRDTWNRELKKTLRDQRIQFRHVEIRSDGDKAHITAEFQVTHNGQPDKRRYKMTVEVRNGTIQRVTVQQHR,0.17

row,Sequence,protease stability score
1,EKHVMTRITQYERNVQNGDEDTLNEMVDKDAKINIGDKTWHGMHNAAKDWKRQKDEMRLDYRSIHVTVQGDTVRIDQVVAVERNGKPSHDRNVQIWHEDNGKVKQVEQHKRP,-0.216
2,EKSIVEFFKKWVTAQRDGDPRQHARYIDPNARLQVGDRVVNGREQAKDDQHKKRKEIKVDMRIKSISASNGTLEVNFREKVDVNGRPITREYRFRFEVRNGRITSLSNQVDKEEQKKLKK,0.157
3,ENHVMNNAEKYLRLLEKGDEEELVKMADPNAKFRIGDKHVHGMESFADDLFRKQKEIRMEINIKHYEVQGDHVTIKAEQEKQHDGRPRRDTNKIIMQVHNGKIKQVTFTSDG,-0.222
4,EQDQIRRLKTFIKIIDHNNPSKVRELLDKDVHIDIGDKVIRGREEYADEIHKLQKEMRVKLQVDDIKDHGEHVHFTARWYARVNGRPRTNEIHVQARAHNGHVTSIKVHMDPRVLKEMRS,-0.027
5,EQELRKKATEMLKVVQEGDEDRLVEYADPNVRVQVGDKVLHGQEDLRKFVQRLTKESRIHLKHVDIEVHGNKIDITVEADVEHNGRPSTDTFSMRVEMENGRAKFIQVRTSK,1.39
6,EQEVVHLAHRFIEAVQHNSTEDANKNVDPNAKFRVGDHVVNGREEVNEKVRKDHEKIRLQIRSVTLEDQGDKVEIRMDVEFDVNGKPLHHNLKMTVEAHNGKIVQLDNQMDPTELKELKQ,-0.152
7,EQTFVHEFIKNVQRNNEHELKKLIDPNAKVVVGNKTFQGREQINSQLKRFKDQVDEFHVDTYHDKGDKAVIDYVRVVDGQRVHYRLIITAENGKVKSMELHVTDPEQQKTIERVLD,1.33
8,ERDSLKHVAREMEKNNFDEMLHNADKDVEIHYGNRSVHGHKRAQSFWERLKSRVDHISFKSYSINNGRIVMSFKVVIDGQDIEVHISIEVENGTIKHVQFQATSEEIEKLLEKLMD,1.36
9,ERELVSIAQDILHALEHGDPQQFRDLVDPNAKFKVGDHEWHGRESAANEYAKEQRKMNNKYDRVTWDNNGDHIRARFNWVNHSNGEPKRKQATQELVLHNGRLVSMKQDDTQ,-0.052
10,ERERNQKLAEIFAQAVETGDPEQAQKMAPPDVKAQVGDHQFRGREEIHKMIETIRRRADHARLKDMTVDGDKITIVVQFNVNGKEVNVVFHITVRNGVATEIELRSK,1.26
11,EREVVQEAAKAINSNDFRRLSELMDKDVKMQYGDKTLSGREEVETLLKSLHEQIDTFTVDHYHVEGNKAEVDARFHFNGKRLRMHLYAVAHNGRIQEMKIQATTEHQQEELSRLWR,0.613
12,ESELDKQAEQIVRVLRTGDPEKVADNAPEDAELIIGDKTYHGREQIRDWVHTVNKQMRIQWDEFDVKVKGDKAKVEADVVYDVNGTPVEDKIVLIFVIHNGRVHAVHFDFDPEVWRSMES,0.569
13,ETEELHKMTELIDNMQRGNPQKFNEMVDPNAQFEVGDKTIRGREELSKELHRKRREMRRSLRSVKVRLSGNHFDIRVTFRETHNGQPDDRRQRIVIIVSNGRIKSVRVDEDG,0
14,ETHVINRAIEAARHGDEDTLSKLADENAHVSVGDKEFHGREQVKNALKDWHDQVDTFEMKKVEVRGNKADVKIKVVVNGRDMTMRMEINAKGESIREINFSYRDERAKHHAQNAQG,0.169
15,KEEDIVKVAKKLAKIVEEGNPDELKKLLSPDLEVKYGDKERHGADELVKVLKKLLRKGVRIQVKELQVEGNTATTVLEYQHGDKKHDVEIKAKLTGGRLKKLEVRFSPKAQEIVTQG,2.02
16,KEEDVEKVAKRLITLVQEGNVDVMRKYLAPDVEVQYGDVEVKGPDQVVKHVRDLRRQGYRVQLKEVQVEGNTAETVLDYQAGDQKYTATVKAQVKGGVLKRATVKASPEMKKVVKAG,1.38
17,KEETVETLWKQMVEAVQKNNEEQLKKLGKDDVKVEYGGKKYEGTEQMATQLKKFMDLGAKFELKRYKVEGNHVEADIQVHVGGKTVHVTVRVEYDGGKLKKVQVHVSEEAEEAYKKG,1.24
18,KEETVKTLWERMVEAVQKGDKEKVKKLGKDNVNARYNGKEYQGREELAKMLDKFKRKGAEFELKQVHVEGNTVKAEIEVHAAGTTQHVEVEAKYDGGQVEEVVVKISEEVQEMYKKG,0.551
19,NEEQAKRLAEKWIRAVENGNVDELRKLGKPDMEVVAVNEKAKGVDTVHKYMKKFTDRGVELKVDRAKNTGGRVRYTVRARYGGQELTAEVVIDIKDGKVDKVEFRVDERQAQYVLRG,0.812
20,NEEQLERVVKKWMEAVENADSKKVKELLKPDAEVQFGNRTVKGVDELVKYVKKFMDMGVELEVKEHKVEGGRARYQVVATYGGQTVTAQLTIQAKNGKIEKIEFRDNEEVQTLEKQG,0.988
21,REEDVEKVIRTLLQAVHEGNPDKIRKYLKPDVEVQYADQKFKGPDEIMKLMRRMVRKGYRVQIKEQHVEGDTATTRADYQMGDKQVTVEVTAEAENGKLKHAEIKMSPQFEEIVKKG,1.49
22,SEEELRKVVEKLLTYVIEGNPDDVKKYISPNVQVRYFDKTVQGRDEVMKFLRRAKKHGYRLQAKHVQLEGDRATTELDYQAGDQEATVRVEATVNGGRLEKLEVRDSPKVKKVLKDG,1.56
23,SEEQVEKLVKVMFRAVQNGNKDEVKKYGKSSGQFVFGSDRVEGVDQYVKKLKEVHDRGVQFEFKKFQVKDDTVTMETEVHYGNKTFRVTAQAKYDGGTLDRARVEISEEAKEAYKQG,0.368
24,SEERAKKVAKKLMEAFVKGNKDDAKDALQEDVQLHIAGTTYHGPKAVEKLIEFWQRVGVEVKVQEVRVKGNHVEIQTQVHLGDNTTTVRYKIQVEGDKVKKLQLNFSEEVFKQAKDG,1.76
25,TEEDVLKVLETLMKAFFDGNPKEVKEMGKEDVKFQVGDQEVRGVDQMTKRVKEYRDQGIEFHLKRYKVEGDQVTAEAEVVMGDKKARVTAHYKADDGRVDETRVEMSDEAKKLFKHG,0.432
